In patent US20220332804A1 (CSL INNOVATION, published 2022):

Experiments:
Assay in all cases: SPR; KD relative to WT C2;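 also: biacore SPR at 37 °C, anti-C2 mAbs captured on an anti-human IgG chip, alanine or serine C2 surface mutants tested, KD from 1:1 fit compared with wild-type C2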
[1] = target: T1, human C2 F689A (human, UniProt P06681 21-752)
T1 sequence: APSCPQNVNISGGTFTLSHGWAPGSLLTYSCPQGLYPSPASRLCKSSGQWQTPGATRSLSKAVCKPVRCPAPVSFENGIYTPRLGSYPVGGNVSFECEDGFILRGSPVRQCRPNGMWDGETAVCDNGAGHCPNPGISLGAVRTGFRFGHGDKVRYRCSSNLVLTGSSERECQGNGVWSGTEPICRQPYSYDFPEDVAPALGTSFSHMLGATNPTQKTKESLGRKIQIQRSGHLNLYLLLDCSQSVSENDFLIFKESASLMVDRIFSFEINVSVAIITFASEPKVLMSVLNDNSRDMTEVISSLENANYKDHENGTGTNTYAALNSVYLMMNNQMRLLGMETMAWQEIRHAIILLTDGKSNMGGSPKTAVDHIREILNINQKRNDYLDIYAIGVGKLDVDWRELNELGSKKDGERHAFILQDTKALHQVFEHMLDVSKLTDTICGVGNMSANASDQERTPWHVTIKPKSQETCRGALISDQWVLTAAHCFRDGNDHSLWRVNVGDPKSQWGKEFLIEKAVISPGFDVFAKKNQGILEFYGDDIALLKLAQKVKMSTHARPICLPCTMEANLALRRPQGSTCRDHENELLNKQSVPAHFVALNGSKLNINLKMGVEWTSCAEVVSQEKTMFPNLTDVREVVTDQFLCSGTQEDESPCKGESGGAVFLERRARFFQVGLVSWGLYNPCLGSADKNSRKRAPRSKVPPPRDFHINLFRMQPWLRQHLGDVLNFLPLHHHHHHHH

[2] = target: T2, human C2 T442A (human, UniProt P06681 21-752)
T2 sequence: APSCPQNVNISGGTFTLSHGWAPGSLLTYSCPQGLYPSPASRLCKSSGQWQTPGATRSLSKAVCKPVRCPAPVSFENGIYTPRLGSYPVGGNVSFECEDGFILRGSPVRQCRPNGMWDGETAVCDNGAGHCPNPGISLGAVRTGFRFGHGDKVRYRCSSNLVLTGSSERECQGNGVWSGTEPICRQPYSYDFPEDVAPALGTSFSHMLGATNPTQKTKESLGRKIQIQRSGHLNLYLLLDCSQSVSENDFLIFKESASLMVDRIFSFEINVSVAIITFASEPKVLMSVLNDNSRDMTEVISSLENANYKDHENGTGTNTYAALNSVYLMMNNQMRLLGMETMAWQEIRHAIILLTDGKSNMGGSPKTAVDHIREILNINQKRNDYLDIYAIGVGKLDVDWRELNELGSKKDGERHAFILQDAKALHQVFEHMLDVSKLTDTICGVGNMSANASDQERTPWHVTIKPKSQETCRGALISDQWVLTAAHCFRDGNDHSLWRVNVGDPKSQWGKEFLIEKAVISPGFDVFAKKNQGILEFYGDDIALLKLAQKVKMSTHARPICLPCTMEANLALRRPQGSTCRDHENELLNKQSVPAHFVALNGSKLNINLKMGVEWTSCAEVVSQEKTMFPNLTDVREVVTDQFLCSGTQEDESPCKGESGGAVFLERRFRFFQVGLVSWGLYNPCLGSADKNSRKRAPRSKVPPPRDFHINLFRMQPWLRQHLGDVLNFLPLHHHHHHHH

[3] = target: T3, human C2 A472S (human, UniProt P06681 21-752)
T3 sequence: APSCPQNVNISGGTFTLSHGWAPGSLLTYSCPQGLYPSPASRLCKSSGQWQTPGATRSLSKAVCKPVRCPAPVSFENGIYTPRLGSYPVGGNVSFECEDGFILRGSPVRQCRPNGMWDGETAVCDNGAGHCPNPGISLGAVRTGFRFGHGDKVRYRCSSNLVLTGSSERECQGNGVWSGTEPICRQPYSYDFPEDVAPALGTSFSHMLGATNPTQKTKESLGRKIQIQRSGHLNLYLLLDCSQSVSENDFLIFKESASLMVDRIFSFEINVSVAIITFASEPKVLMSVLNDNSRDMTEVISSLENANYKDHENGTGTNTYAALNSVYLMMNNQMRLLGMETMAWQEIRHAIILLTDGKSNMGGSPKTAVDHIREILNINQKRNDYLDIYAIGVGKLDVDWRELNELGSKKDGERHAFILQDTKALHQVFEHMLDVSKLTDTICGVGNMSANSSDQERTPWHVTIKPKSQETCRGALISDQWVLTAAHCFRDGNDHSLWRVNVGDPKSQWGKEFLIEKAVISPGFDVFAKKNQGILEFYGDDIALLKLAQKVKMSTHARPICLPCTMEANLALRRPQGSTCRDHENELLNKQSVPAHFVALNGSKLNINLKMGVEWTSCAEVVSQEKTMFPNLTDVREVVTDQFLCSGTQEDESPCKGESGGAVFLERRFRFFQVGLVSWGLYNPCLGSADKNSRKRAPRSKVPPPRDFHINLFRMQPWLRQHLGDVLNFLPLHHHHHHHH

[4] = target: T4, human C2 S469A (human, UniProt P06681 21-752)
T4 sequence: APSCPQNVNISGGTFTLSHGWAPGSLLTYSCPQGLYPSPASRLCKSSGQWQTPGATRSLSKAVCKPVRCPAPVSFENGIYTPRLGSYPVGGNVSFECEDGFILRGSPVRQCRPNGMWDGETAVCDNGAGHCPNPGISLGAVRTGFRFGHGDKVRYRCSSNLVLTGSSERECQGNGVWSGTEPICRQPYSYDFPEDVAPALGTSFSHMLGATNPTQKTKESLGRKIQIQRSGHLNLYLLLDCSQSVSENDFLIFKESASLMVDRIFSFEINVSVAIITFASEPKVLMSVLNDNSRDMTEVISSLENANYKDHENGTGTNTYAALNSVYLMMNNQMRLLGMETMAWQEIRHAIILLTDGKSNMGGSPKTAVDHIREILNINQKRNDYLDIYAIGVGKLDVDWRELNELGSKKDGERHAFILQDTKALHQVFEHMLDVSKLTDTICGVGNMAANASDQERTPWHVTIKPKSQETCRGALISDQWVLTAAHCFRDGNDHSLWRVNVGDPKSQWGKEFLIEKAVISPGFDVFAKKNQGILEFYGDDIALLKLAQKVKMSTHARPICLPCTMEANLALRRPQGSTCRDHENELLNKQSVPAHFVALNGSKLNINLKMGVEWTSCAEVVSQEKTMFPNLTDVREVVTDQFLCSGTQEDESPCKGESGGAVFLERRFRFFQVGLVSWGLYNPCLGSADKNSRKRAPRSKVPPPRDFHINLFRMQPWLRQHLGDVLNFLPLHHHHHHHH

B1: RF16-214 (antibody, V domains shown)
VH: EVQLLESGGGLVQPGGSLRLSCAASGFTFSWYQMMWVRQAPGKGLEWVSRIYPSGGGTAYADSVKGRFTISRDNSKNTLYLQMNSLRAEDTAVYYCARDAGYGDNWGQGTLVTVSS
VL: QSALTQPPSVSVSPGQTASITCSGDKLGEKYASWYQQKAGQSPVMVIYQDRKRPSGIPERFSGSNSGNTATLTISGTQAMDEADYYCQAWDTRAVVFGGGTKLTVLG
Which results are given for B1?
Fold diff [1]: 1 fold; Fold diff [2]: 2 fold; Fold diff [3]: 8 fold; Fold diff [4]: 3 fold
